Reference: patent publication US20030200555A1

Target: 2081/anti-NF IgG
Assay: ECL (ORIGEN Analyzer), competition with biotinylated-SEVNF

- fold less effective in competition than SEVNF: 100 fold
Binder: SEVNL [SEVNL peptide]
